Data as given in the supplement of paper PMC9170038.

Columns and labels:
MS2 coat protein [1] = experiment: apparent KD of MS2 coat protein; designed switch direction (-1 OFF switch, 1 ON switch): 1; higher = weaker reporter binding
Procedure, shortened: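 Designed RNA switches with common flanks were made on Illumina chips by stalled E. coli RNA polymerase. Titration with SNAP-549-labelled MS2 coat protein doubled from 0.7 or 1.5 nM up to 3 µM. Apparent KD is each design's median over clusters after curve-fitting normalised fluorescence.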

MS2 coat protein [2] = experiment: apparent KD of MS2 coat protein; higher = weaker reporter binding; conditions: Eterna round: R107
Procedure, shortened: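 Values are apparent KD, taken as the median for each design of fits to normalised binding curves from individual clusters. The designed RNA switches were transcribed on-chip from Illumina sequencing clusters and exposed to SNAP-549-labelled MS2 coat protein at twofold increasing amounts from 0.7 or 1.5 nM to 3 µM. Titration used 100 mM Tris-HCl pH 7.5, 80 mM KCl and 4 mM MgCl2, without or with constant ligand.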

[3] = input ligand: microRNA oligo, concentration not stated
[4] = Eterna round: R95, input ligand: FMN 200 uM
[5] = Eterna round: R95, input ligand: microRNA oligo, concentration not stated
[6] = Eterna round: R95, input ligand: none
[7] = input ligand: theophylline 20 uM
[8] = input ligand: theophylline 2 mM
[9] = input ligand: tryptophan 2.4 mM

Sequence | apparent KD of MS2 coat protein (MS2 coat protein [1]; input ligand: FMN 200 uM) [µM] | apparent KD of MS2 coat protein (MS2 coat protein [1]; [3]) [µM] | apparent KD of MS2 coat protein (MS2 coat protein [1]; input ligand: none) [µM] | apparent KD of MS2 coat protein (MS2 coat protein [1]; [5]) [µM] | also measured
GGUGGGUUGCUGCCGGCACAUGAGGAUCACCCAUGUUUUGGGAAGGAUAUGGUACCUAUUUGGUGCCAGAAGGUCCCGUUGGUG [salish99_SSNG3_r04_710] (Eterna round: R96, puzzle: Same State NG 3) | 0.402 | 0.376 | 0.48 |  | 
GGAAAGAGGUUAGGAUAUGCAUGUUUGGGACAUGAGGAUCACCCAUGUAAUAGAAGAAAUCUACAGUAGAAGGGACAAGGAAGG [AK SSNG2-V2-6.1] (Eterna round: R96, puzzle: Same State NG 2) | 0.152 | 0.0729 | 0.17 |  | 
AGUCCAGCCUGAGCUGGACAAAAGCAUGUACAUGAGGAUCACCCAUGUUCAUGUACAAGCUUUUUGCUCGUCUAAAU [Mat - hsa-mir-208a - Mod of JL - 46] (puzzle: Sensor for hsa-mir-208a) |  |  |  | 0.0155 | apparent KD of MS2 coat protein (MS2 coat protein [1]; [4]): 0.449 µM; apparent KD of MS2 coat protein (MS2 coat protein [1]; [6]): 0.682 µM
AGUCCAGCCUGAGCUGGACAGAAGCAUGUACAUGAGGAUCACCCAUGUCAUGUACAAGCUUUUUGCUCGUCUUAAAA [Zipper 46 - 3] (puzzle: Sensor for hsa-mir-208a) |  |  |  | 0.0159 | apparent KD of MS2 coat protein (MS2 coat protein [1]; [4]): 0.422 µM; apparent KD of MS2 coat protein (MS2 coat protein [1]; [6]): 0.586 µM
UGAAUAGUUACAGGAUAUCAUGCGAAAAUUGCGUGAGAAGGGUGGGUGUUGUGCGCUAAGUGCUACAUGAGGAUCACCCAUGUU [SameState NG1 #37] (Eterna round: R96, puzzle: Same State NG 1) | 0.325 | 0.0288 | 0.213 |  | 
AUUAAACAUGAGGAUCACCCAUGUCAACAAAGUCGAGGAUAUGGGCAAUUAAAAUAAGAACCAGAAGGCGAAUAAU [salish99_ss1_r3_061] (puzzle: Same State 1) |  |  |  | 0.224 | 
GAGAAUCUAUCUCAGGAUAUCAUGUCAAAGACAUGAGGAUCACCCAUGUACCAGGAAACUGGUUAUGAGAAGGGAGAUAGAUUCG [Mat - Same State 2 - Mod - D36] (puzzle: Same State 2) |  |  |  | 0.111 | apparent KD of MS2 coat protein (MS2 coat protein [1]; [4]): 0.0861 µM; apparent KD of MS2 coat protein (MS2 coat protein [1]; [6]): 0.0401 µM
UGGAUCUAGGCUUGCCUGGGUCCAUGUUGACAUGAGGAUCACCCAUGUGUAUUUUUUUAGCUUUUUGUUUGUCAACA [JL A Humble Attempt mod 5] (puzzle: Sensor for hsa-mir-208a) |  |  |  | 0.0151 | apparent KD of MS2 coat protein (MS2 coat protein [1]; [4]): 0.039 µM; apparent KD of MS2 coat protein (MS2 coat protein [1]; [6]): 0.0411 µM
UGUUGUAUUACAGGAUAUCUAUUGUAUUUAUUUAGAGAAGGGUAUUCACAUGAGGAUCACCCAUGUAUAUACGAGGAAGUUGUG [JMF's solution 73] (Eterna round: R96, puzzle: Same State NG 1) |  | 0.0467 |  |  | 
GCGAAAUGAUGAAACAUGAGGAUCACCCAUGUAACGAGAGAUGAGGAUAUCGGAAAGGGAGGAACCGAGAAGGCAUGGUCACGC [AK SSNG3-V2-26.1] (Eterna round: R96, puzzle: Same State NG 3) | 0.0345 | 0.0371 | 0.0482 |  | 
GCCGUAUACAUGAGGAUCACCCAUGUUGACGCGAGAGUGGAUGAGGAUAUCGAUGGGUUUCCCGUCGAGAAGGCGUGGGUCGGC [JL SSNG3 3.00] (Eterna round: R96, puzzle: Same State NG 3) | 0.0498 | 0.0305 | 0.0461 |  | 
AGUCCAGCCAAAGCUGGACAAAAGCAUGUACAUGAGGAUCACCCAUGUUCAUGUACAAGCUUUUUGCUCGUCUUAAA [Mat - hsa-mir-208a - Mod of JL - 56] (puzzle: Sensor for hsa-mir-208a) |  |  |  | 0.0161 | apparent KD of MS2 coat protein (MS2 coat protein [1]; [4]): 0.413 µM; apparent KD of MS2 coat protein (MS2 coat protein [1]; [6]): 0.465 µM
AGUGAAGAAGCUGAGGAUAUCGUAAGGAGGACAUGAGGAUCACCCAUGUGUGUGGAAUUGGAGGACGAGAAGGCAGAGGAGUGGG [JR_SS2_Sub057] (puzzle: Same State 2) |  |  |  | 0.0426 | apparent KD of MS2 coat protein (MS2 coat protein [1]; [4]): 0.0393 µM; apparent KD of MS2 coat protein (MS2 coat protein [1]; [6]): 0.0227 µM
UGUAUACAUGAGGAUCACCCAUGUCAACGUAGUCGAGGAUAUGGGCAGCCGUGAGGCGUACCAGAAGGCGAAGAGG [JL-ss1-3.05 ViennaUCT mod] (Eterna round: R96, puzzle: Same State 1) | 0.0365 | 0.104 | 0.151 |  | 
ACAUAGGUUUCAGGAUAUGGGUAAAUUCCCAACAUGAGGAUCACCCAUGUCCGUAGGGAUAACAUCCAGAAGGGAAGCCACAUA [MOD Eternabot Solution 1 (Score 87.5)] (Eterna round: R96, puzzle: Same State NG 2) | 0.0893 | 0.1 | 0.0594 |  | 
GUGGUGGGUUGAGGAUAUUGGUUGUCGUUGUCCCACAUGAGGAUCACCCAUGUGGGUUGUGGUUUUGAGAAGGUUGGUUGCUGG [salish99_SSNG2_r04_052] (Eterna round: R96, puzzle: Same State NG 2) |  | 0.0129 |  |  | 
AACUAUCUAUCUCAGGAUAUCAUGUCAAAGACAUGAGGAUCACCCAUGUACCAGGAAACUGGUUAUGAGAAGGGAGAUAGAUAGA [Mat - Same State 2 - Mod - D38] (puzzle: Same State 2) |  |  |  | 0.0877 | apparent KD of MS2 coat protein (MS2 coat protein [1]; [4]): 0.0925 µM; apparent KD of MS2 coat protein (MS2 coat protein [1]; [6]): 0.097 µM
AGAGGAGGAGCAGGAUAUUCGAAGAAGGACGUGGAAGAAGGGUUCAUGCGAUGACAUGAGGAUCACCCAUGUACCGCGCGAGGA [AK SSNG1-V2-12] (Eterna round: R96, puzzle: Same State NG 1) | 0.0634 | 0.0426 | 0.069 |  | 
UGGUACAUGGGAGGAUAUGGGCAAGGGACAUGAGGAUCACCCAUGUAUUAAAAGCCGAAAGGCAUCUAGAAGGCCCAUGUACCU [JL SSNG1 3.87] (Eterna round: R96, puzzle: Same State NG 2) | 0.014 | 0.0427 | 0.0502 |  | 
GAGUAGUUGAAAGGAUAUUGAUUGUUAUAGGAUCAAGAAGGUUCUAACAUGAGGAUCACCCAUGUAGGACUAUUCCUGUGUAUC [Parity 83 - Jieux - Same State NG 1] (Eterna round: R96, puzzle: Same State NG 1) | 0.011 | 0.00878 | 0.0125 |  | 
CUAGGAGGAUGAGGAUAUGCAGAGGAUCACCCUGUAGAAGGCAAGAGAUGAGGAUAUGCAGAGGAUCACCCUGUAGAAGGCAAC [pwkr ssNG DX.1] (Eterna round: R96, puzzle: Same State NG 1) | 0.307 | 0.0865 | 0.122 |  | 
GGAGAGAAGUGAGGAUAUGCAUGGAAGACACAUGAGGAUCACCCAUGUGGGAGGGAGACCGGGAGGUAGAAGGCACUGGGAAGA [AK SSNG2-V2-25.1] (Eterna round: R96, puzzle: Same State NG 2) | 0.425 | 0.0423 | 0.0742 |  | 
UAGAAACAUGAGGAUCACCCAUGUGGGUUAAACACAGGAUAUCAUGCCACACGAUAGGUAUGAGAAGGGUGACCGU [Sodion] (puzzle: Same State 1) |  |  |  | 0.0795 | apparent KD of MS2 coat protein (MS2 coat protein [1]; [4]): 0.234 µM; apparent KD of MS2 coat protein (MS2 coat protein [1]; [6]): 0.0533 µM
GGAGCCGGCCUAGGAUAUUUCAUAAAUUAACAUGAGGAUCACCCAUGUAGGCCAGAAGGCCUUGGGAAGAAGGAGGUCGGCUCC [Loop Effect - U27,U28] (Eterna round: R96, puzzle: Same State NG 2) | 0.0168 | 0.0377 | 0.0514 |  | 
GGGAUAUAGGCGGCCGCCACUGAUUUUCAUAUAUAUAUAACAUGAGGAUCACCCAUGUAGAUAUACAGGACCGGGCCUAUAUUUU [aaaD] |  |  |  |  | apparent KD of MS2 coat protein (MS2 coat protein [2]; input ligand: arginine 13.2 mM): 0.0148 µM; apparent KD of MS2 coat protein (MS2 coat protein [2]; input ligand: none): 0.0152 µM; apparent KD of MS2 coat protein (MS2 coat protein [2]; [7]): 0.0174 µM; apparent KD of MS2 coat protein (MS2 coat protein [2]; [8]): 0.0211 µM; apparent KD of MS2 coat protein (MS2 coat protein [2]; [9]): 0.0135 µM
GCUAGUGGCAGAAGGAGCGAGGCCCGCGCACAUAACAUGAGGAUCACCCAUGUGGCGAGACCUCAGGUAGGUCGCUGCCACUAGC [EAB NP+V2 #1] |  |  |  |  | apparent KD of MS2 coat protein (MS2 coat protein [2]; input ligand: arginine 13.2 mM): 0.012 µM; apparent KD of MS2 coat protein (MS2 coat protein [2]; input ligand: none): 0.0114 µM; apparent KD of MS2 coat protein (MS2 coat protein [2]; [7]): 0.0258 µM; apparent KD of MS2 coat protein (MS2 coat protein [2]; [8]): 0.0142 µM; apparent KD of MS2 coat protein (MS2 coat protein [2]; [9]): 0.0124 µM
AGCUCGCAUCCUCUAGCGUCAAAGACGCGUCGAGGACCGGUACGGCCGCCACUCGACUUGAGGAACACCCAAGUCCUAGCGAGCA [TrypAX 12 #SwitchBubble #AlternativeMS2 #MS2Late #CuTurnoff] |  |  |  |  | apparent KD of MS2 coat protein (MS2 coat protein [2]; input ligand: arginine 13.2 mM): 0.0622 µM; apparent KD of MS2 coat protein (MS2 coat protein [2]; input ligand: none): 0.188 µM; apparent KD of MS2 coat protein (MS2 coat protein [2]; [7]): 0.217 µM; apparent KD of MS2 coat protein (MS2 coat protein [2]; [8]): 0.306 µM; apparent KD of MS2 coat protein (MS2 coat protein [2]; [9]): 0.29 µM
UACAUGAGGAUCACCCAUGUAUGAAGGGAUACCAGCGACAGUAAGCGCCCUUGGCAGCCCGUGAAUAAAGGGUGGGUAAAAUAGU [Exclusion Theophyline A GF 3] |  |  |  |  | apparent KD of MS2 coat protein (MS2 coat protein [2]; input ligand: arginine 13.2 mM): 0.0269 µM; apparent KD of MS2 coat protein (MS2 coat protein [2]; input ligand: none): 0.0214 µM; apparent KD of MS2 coat protein (MS2 coat protein [2]; [7]): 0.0309 µM; apparent KD of MS2 coat protein (MS2 coat protein [2]; [8]): 0.0394 µM; apparent KD of MS2 coat protein (MS2 coat protein [2]; [9]): 0.0161 µM
ACAUGAGGAUCACCCAUGUAGUAGUCAGAAGGAGCGUGGAAUAACACAGGUAGGUCGCUGAUGUUUGGUUAAAUGUAAUCGUGUA [#30 Same State - Arginine A] |  |  |  |  | apparent KD of MS2 coat protein (MS2 coat protein [2]; input ligand: arginine 13.2 mM): 0.0196 µM; apparent KD of MS2 coat protein (MS2 coat protein [2]; input ligand: none): 0.0174 µM; apparent KD of MS2 coat protein (MS2 coat protein [2]; [7]): 0.0276 µM; apparent KD of MS2 coat protein (MS2 coat protein [2]; [8]): 0.0183 µM; apparent KD of MS2 coat protein (MS2 coat protein [2]; [9]): 0.0178 µM
